Test results as given in US20090311183 (published 2009).
Changes are numbered by the printed parent chain. Where two headings read alike, the source gives them in different places. One block for each binder: values may come before it.

Assays:
Assay in all cases: SPR
human MMP-12 [1] = biological target: human MMP-12 (human)
mouse MMP-12 = mouse MMP-12 (mouse)
human MMP-12 [2] = biological target: human MMP-12 (human); remark: listed apart in the source

human MMP-12 (human), sequence (B2R9X8 whole entry): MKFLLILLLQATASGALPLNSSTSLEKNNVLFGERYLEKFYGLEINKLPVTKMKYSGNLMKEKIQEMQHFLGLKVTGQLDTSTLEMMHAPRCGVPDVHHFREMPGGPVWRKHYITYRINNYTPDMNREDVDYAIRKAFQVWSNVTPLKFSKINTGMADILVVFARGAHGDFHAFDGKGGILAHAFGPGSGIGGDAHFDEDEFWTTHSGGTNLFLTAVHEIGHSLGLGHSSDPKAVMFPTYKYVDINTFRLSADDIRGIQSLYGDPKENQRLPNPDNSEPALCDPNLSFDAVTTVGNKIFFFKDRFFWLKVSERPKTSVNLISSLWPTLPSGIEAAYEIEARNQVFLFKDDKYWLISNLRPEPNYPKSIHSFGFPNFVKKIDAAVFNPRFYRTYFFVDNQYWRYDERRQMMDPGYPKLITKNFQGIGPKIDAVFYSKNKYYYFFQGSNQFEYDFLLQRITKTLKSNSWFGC
mouse MMP-12 (mouse), sequence (chain, as listed by the source): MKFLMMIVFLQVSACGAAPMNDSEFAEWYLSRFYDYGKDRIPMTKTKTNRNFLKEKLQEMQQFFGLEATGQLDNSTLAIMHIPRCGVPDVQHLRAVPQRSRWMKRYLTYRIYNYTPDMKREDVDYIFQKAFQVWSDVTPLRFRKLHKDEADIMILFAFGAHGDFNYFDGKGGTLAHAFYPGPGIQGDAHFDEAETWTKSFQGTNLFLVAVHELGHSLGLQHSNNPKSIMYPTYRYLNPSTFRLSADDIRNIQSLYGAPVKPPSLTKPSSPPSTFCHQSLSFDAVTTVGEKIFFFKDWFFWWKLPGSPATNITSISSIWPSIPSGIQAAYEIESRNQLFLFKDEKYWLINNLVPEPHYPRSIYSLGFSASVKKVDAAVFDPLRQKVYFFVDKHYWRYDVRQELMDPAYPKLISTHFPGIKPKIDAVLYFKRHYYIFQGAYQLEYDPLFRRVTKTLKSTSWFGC

B1: 539B-M0121-E07 (antibody, V domains shown)
VH: EVQLLESGGGLVQPGGSLRLSCAASGFTFSWYGMHWVRQAPGKGLEWVSGIVSSGGETFYADSVKGRFTISRDNSKNTLYLQMNSLRAEDTAVYYCAKDIRGVFLSGLFDHWGRGTLVTVSS
VL: DIQMTQSPSSLSASVGDRVTITCRANQSIYTYLNWYQQKPGKAPELLIYAASSLQSGVPSRFSGSGSGTDFTLTISSLQPEDFATYYCQQAGIFGQGTKLEIK
Kd (human MMP-12 [1]): 0.197 nM

B3: 539B-M0065-H05 IgG (antibody, V domains shown)
VH: B1 VH with W31Y, H35G, G50V, V52S, E57F, V103A, F104Y, L105S, H111Y
VL: B1 VL
Kd (human MMP-12 [2]): 2.2 nM

B5: 539B-M0118-F11 (antibody, V domains shown)
VH: EVQLLESGGGLVQPGGSLRLSCAASGFTFSYYNMHWVRQAPGKGLEWVSGISPSGGTTFYADSVKGRFTISRDNSKNTLYLQMNSLRAEDTAVYYCARDITGAYSAGLFDLWGRGTLVTVSS
VL: B1 VL
Kd (human MMP-12 [1]): 1.17 nM
koff (mouse MMP-12): 0.000193 s⁻¹

More lines, now with the values ahead:

koff (mouse MMP-12): 4.84e-05 s⁻¹
B2: 539B-M0131-A06 (antibody, V domains shown)
VH: B5 VH with Y31W, N33W, T57M, F59M, T101V, A103P, L111Y
VL: B1 VL

Kd (human MMP-12 [2]): 0.68 nM
B4: 539B-M0130-C12 (antibody, V domains shown)
VH: B5 VH with Y31E, S52V, T57L, F59H, T101R, L108I, L111Y
VL: B1 VL
